Measured values as given in patent US20260159566A1 (US Dept. of Health and Human Services, published 2026).
Like-named read-outs stand apart in the source and are kept apart here.

How the values were obtained:
[1] = biological target: T1, B-cell Maturation Antigen (BCMA) (human, UniProt Q02223 1-184); experiment: cell-based or functional assay
T1 sequence: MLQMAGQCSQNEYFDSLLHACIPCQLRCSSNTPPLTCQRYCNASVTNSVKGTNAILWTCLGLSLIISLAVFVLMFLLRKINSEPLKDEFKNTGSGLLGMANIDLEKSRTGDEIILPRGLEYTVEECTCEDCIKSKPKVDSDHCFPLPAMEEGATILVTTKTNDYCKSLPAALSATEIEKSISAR

[2] = biological target: T2, BCMA-Fc protein labeled with phycoerythrin (Homo sapiens (Human), UniProt Q02223 1-54, labeled with phycoerythrin); experiment: flow cytometry, BCMA-Fc-PE staining of CAR-transduced T cells
T2 construct: Staining reagent; also called BCMA-Fc-PE reagent; BCMA-Fc protein reagent; not shown: Fc part
T2 sequence: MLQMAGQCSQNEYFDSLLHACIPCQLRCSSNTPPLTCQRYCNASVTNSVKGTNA
Procedure: (§1) With reference to Table 2, cultured T cells were transduced with the indicated CARs and cultured overnight with the indicated target cells (top row). After the overnight incubation, a standard ELISA assay was performed on the culture supernatant. BCMA-K562 is BCMA⁺. All other targets are BCMA-negative. The percentage of T cells expressing the indicated CAR was determined by staining with a BCMA-Fc-PE reagent followed by flow cytometry. The % CAR⁺ equals the percentage of CD3⁺ cells transduced with each CAR that stained with the BCMA-Fc-PE reagent minus the percentage of untransduced CD3⁺ lymphocytes that stained with the BCMA-Fc-PE reagent. Except for the % CAR⁺ column, all numbers are pg/mL of interferon-gamma.

[3] = biological target: T2, BCMA-Fc protein labeled with …; experiment: as above; remark: listed apart in the source
Procedure: as §1

[4] = biological target: T1, B-cell Maturation Antigen (BCMA); experiment: cell-based or functional assay; remark: listed apart in the source

B1: FHVH33-CD828Z (other)
chain: EVQLLESGGGLVQPGGSLRLSCAASGFTFSSYAMSWVRQAPGKGLEWVSSISGSGDYIYYADSVKGRFTISRDISKNTLYLQMNSLRAEDTAVYYCAKEGTGANSSLADYRGQGTLVTVSSFVPVFLPAKPTTTPAPRPPTPAPTIASQPLSLRPEACRPAAGGAVHTRGLDFACDIYIWAPLAGTCGVLLLSLVITLYCNHRNRSKRSRLLHSDYMNMTPRRPGPTRKHYQPYAPPRDFAAYRSRVKFSRSADAPAYQQGQNQLYNELNLGRREEYDVLDKRRGRDPEMGGKPRRKNPQEGLYNELQKDKMAEAYSEIGMKGERRRGKGHDGLYQGLSTATKDTYDALHMQALPPR
notes: Chimeric antigen receptor on transduced primary human T cells; also called FHVH33 CAR
B1 was tested, and the “Interferon-gamma ELISA, T cells cultured overnight with BCMA-K562 cells” value [1] was 31300 pg/mL, the “Interferon-gamma ELISA, T cells cultured overnight with RPMI-8226 cells” value [1] was 4060 pg/mL and the “% CAR+ (percentage of CD3+ cells stained with BCMA-Fc-PE minus untransduced)” value [2] was 60.5%. The “% CAR+ (percentage of CD3+ cells stained with BCMA-Fc-PE minus untransduced)” value [3] was 60.5%, the “Tumor-necrosis factor-alpha ELISA, T cells cultured overnight with BCMA-K562 cells” value [4] was 2160 pg/mL and the “Tumor-necrosis factor-alpha ELISA, T cells cultured overnight with RPMI-8226 cells” value [4] was 210 pg/mL.
